{"source": "patent US20110275102", "key": {"[1]": {"target": "GSK3-α partially purified from rabbit skeletal muscle"}, "[2]": {"target": "T1, Crosstide GRPRTSSFAEG", "T1 chain": "GRPRTSSFAEG"}, "[3]": {"target": "GSK3-β partially purified from rabbit skeletal muscle, A0A5F9", "sequence (A0A5F9 entry or part of it)": "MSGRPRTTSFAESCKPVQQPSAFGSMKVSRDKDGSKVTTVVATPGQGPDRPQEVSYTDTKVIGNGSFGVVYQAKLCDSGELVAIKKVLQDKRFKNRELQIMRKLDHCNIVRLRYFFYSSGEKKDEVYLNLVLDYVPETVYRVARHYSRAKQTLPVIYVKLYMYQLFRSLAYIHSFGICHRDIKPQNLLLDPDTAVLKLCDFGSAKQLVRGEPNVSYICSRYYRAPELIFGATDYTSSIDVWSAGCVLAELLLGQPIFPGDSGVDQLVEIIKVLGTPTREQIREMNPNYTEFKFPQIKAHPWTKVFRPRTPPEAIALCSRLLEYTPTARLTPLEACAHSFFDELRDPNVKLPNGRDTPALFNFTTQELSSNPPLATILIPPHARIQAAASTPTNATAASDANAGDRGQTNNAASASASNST"}}}
{"protein": "RAC-PK immunoprecipitated or chromatographed from insulin-stimulated L6 myotubes (protein) MNDVAIVKEGWLHKRGEYIKTWRPRYFLLKNDGTFIGYKERPQDVEQRESPLNNFSVAQCQLMKTERPRPNTFIIRCLQWTTVIERTFHVETPEEREEWTTAIQTVADGLKRQEEETMDFRSGSPSDNSGAEEMEVALAKPKHRVTMNEFEYLKLLGKGTFGKVILVKEKATGRYYAMKILKKEVIVAKDEVAHTLTENRVLQNSRHPFLTALKYSFQTHDRLCFVMEYANGGELFFHLSRERVFSEDRARFYGAEIVSALDYLHSEKNVVYRDLKLENLMLDKDGHIKITDFGLCKEGIKDGATMKTFCGTPEYLAPEVLEDNDYGRAVDWWGLGVVMYEMMCGRLPFYNQDHEKLFELILMEEIRFPRTLGPEAKSLLSGLLKKDPTQRLGGGSEDAKEIMQHRFFANIVWQDVYEKKLSPPFKPQVTSETDTRYFDEEFTAQMITITPPDQDDSMECVDSERRPHFPQFSYSASGTA", "values": [{"measurement": "GSK3 activity after incubation with MgATP and RAC-PK", "setting": "[1]", "value": "RAC-PK from insulin-stimulated L6 myotubes (but not from unstimulated or wortmannin-treated cells) inactivated GSK3-α and GSK3-β in vitro"}, {"measurement": "site of phosphorylation in Crosstide", "setting": "[2]", "value": "Akt/RAC phosphorylated the Ser in the Crosstide equivalent to Ser21 in GSK3-α and Ser9 in GSK3-β (data not shown)"}, {"measurement": "GSK3 activity after incubation with MgATP and RAC-PK", "setting": "[3]", "value": "RAC-PK from insulin-stimulated L6 myotubes (but not from unstimulated or wortmannin-treated cells) inactivated GSK3-α and GSK3-β in vitro"}, {"measurement": "site of in vitro phosphorylation (tryptic peptide, solid-phase sequencing)", "setting": "[3]", "value": "the third residue of these, corresponding to Ser9 (GSK3-β) or Ser21 (GSK3-α), was the site of phosphorylation in each phosphopeptide"}]}
